Measured values reported in US20120142597A1 (GEORGIA TECH RESEARCH, published 2012).
Blank lines part the entries; values can stand above or below the binder they belong to.

How the values were obtained:
[1] = target: T1, α5β1 integrin on MC3T3-E1 murine osteoblast-like cells (mouse, UniProt P11688 45-1053; P09055 21-798); experiment: cell-based or functional assay
[2] = target: T1, α5β1 integrin on MC3T3-E1 murine …; experiment: antibody blocking of adhesion, MC3T3-E1 cells on tethered ligand
Description: MC3T3-E1 cells were labeled with 4 mM calcein-AM, a membrane-permeable green fluorescent dye, in 2 mM dextrose-DPBS for 30 min and resuspended in α-MEM with 10% FBS. Cells were seeded onto the surfaces at 200 cells/mm², and allowed to attach for 1 h at 37° C. For blocking antibody experiments, cells were incubated in the presence of function-perturbing antibodies (10 μg/ml) for 10 min with gentle agitation prior to cell seeding. […] Wells were then filled completely with dextrose-PBS, sealed, inverted, and centrifuged for 5 min at a prescribed speed on a Beckman Allegra 6 centrifuge (GH 3.8 rotor) to apply normal detachment forces. Media was then gently aspirated from the wells, and wells were refilled for post-spin image collection. Post/pre-spin cell ratios were determined by image analysis, and this adhesive fraction was plotted against ligand surface density to obtain cell adhesion profiles.
Function-perturbing antibodies directed against different integrin subunits were used to block adhesion to the engineered interfaces. Since integrins α₅β₁ and αᵥβ₃ represent the dominant adhesion receptors for FN in MC3T3-E1 cells, the contributions of these receptors to adhesion strength on the peptide-functionalized SAMs was examined. Surfaces were tethered with maximum density of ligand, and the relative cell adhesion was normalized to unblocked controls.

[3] = target: αvβ3 integrin on MC3T3-E1 murine osteoblast-like cells (mouse, UniProt P43406 31-1044; O54890 26-787); experiment: cell-based or functional assay
Sequence of αvβ3 integrin on MC3T3-E1 murine osteoblast-like cells (P43406 31-1044, chain 1 of 2): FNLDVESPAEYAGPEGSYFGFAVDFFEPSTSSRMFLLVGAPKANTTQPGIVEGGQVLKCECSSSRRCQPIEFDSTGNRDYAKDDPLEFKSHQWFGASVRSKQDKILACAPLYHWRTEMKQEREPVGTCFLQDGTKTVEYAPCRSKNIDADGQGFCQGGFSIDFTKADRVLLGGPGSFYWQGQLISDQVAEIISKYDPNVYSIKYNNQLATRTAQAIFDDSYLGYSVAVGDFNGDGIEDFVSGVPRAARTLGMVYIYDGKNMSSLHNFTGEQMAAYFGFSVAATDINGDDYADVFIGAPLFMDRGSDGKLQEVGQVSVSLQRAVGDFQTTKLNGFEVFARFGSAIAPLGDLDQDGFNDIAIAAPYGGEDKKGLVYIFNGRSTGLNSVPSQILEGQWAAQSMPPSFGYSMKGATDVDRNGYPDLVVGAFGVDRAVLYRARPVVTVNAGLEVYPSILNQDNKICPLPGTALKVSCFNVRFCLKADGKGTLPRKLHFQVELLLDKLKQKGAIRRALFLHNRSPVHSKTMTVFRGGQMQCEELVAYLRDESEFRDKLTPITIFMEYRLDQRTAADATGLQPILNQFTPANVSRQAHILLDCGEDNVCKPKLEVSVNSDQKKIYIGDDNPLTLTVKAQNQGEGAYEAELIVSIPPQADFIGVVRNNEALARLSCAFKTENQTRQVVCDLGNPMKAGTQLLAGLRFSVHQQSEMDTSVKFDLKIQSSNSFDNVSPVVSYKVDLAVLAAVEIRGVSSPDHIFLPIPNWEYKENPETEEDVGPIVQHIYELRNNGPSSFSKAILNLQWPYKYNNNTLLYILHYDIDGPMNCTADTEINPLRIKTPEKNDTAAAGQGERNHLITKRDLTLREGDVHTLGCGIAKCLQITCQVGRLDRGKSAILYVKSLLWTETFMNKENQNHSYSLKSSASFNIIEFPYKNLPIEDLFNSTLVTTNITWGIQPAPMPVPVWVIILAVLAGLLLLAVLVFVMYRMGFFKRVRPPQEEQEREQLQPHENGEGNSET
Sequence of αvβ3 integrin on MC3T3-E1 murine osteoblast-like cells (O54890 26-787, chain 2 of 2): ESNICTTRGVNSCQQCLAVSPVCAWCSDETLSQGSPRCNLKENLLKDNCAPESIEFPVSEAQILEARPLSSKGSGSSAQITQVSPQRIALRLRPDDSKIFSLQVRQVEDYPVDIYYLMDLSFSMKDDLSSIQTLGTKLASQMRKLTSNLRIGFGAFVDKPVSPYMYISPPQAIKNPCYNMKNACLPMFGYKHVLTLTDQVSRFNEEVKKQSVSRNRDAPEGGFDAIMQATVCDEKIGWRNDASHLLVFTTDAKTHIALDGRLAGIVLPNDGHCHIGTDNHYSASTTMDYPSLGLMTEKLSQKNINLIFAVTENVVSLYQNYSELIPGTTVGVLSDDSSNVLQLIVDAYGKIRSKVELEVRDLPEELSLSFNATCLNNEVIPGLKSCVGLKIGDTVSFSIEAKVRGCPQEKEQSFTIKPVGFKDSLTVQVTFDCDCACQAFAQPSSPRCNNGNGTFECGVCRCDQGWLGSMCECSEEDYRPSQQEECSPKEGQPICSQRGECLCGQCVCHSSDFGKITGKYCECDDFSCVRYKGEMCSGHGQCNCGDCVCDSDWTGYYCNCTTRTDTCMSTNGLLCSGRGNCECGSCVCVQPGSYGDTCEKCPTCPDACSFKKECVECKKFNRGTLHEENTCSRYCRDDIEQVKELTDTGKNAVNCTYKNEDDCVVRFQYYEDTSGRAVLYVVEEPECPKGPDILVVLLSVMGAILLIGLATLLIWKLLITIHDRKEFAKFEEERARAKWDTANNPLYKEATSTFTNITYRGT

T1 sequence (P11688 45-1053, chain 1 of 2): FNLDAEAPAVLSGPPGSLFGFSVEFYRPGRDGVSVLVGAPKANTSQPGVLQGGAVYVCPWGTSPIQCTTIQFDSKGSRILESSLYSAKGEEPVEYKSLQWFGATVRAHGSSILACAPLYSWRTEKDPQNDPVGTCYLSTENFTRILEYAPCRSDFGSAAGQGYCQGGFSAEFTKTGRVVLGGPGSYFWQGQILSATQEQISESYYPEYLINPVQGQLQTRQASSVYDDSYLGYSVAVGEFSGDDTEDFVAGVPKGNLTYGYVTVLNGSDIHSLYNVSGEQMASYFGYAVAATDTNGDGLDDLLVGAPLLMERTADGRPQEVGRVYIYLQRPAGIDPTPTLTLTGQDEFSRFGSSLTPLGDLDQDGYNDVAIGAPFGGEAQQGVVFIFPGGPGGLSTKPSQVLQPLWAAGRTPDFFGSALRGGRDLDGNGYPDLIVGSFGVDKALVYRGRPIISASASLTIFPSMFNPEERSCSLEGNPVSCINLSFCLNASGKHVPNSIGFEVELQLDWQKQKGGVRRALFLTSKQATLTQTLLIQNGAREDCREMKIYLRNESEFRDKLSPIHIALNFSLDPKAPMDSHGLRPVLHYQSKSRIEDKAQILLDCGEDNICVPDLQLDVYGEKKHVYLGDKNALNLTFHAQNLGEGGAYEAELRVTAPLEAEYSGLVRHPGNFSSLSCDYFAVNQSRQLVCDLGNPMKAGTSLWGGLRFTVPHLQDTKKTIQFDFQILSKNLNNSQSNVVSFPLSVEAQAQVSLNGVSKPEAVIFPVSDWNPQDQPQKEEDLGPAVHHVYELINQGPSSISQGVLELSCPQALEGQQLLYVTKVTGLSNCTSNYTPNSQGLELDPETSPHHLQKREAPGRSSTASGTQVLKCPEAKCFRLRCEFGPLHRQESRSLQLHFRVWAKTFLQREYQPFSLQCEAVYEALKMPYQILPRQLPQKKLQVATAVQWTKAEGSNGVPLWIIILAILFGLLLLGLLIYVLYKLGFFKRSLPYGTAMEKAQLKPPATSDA
T1 sequence (P09055 21-798, chain 2 of 2): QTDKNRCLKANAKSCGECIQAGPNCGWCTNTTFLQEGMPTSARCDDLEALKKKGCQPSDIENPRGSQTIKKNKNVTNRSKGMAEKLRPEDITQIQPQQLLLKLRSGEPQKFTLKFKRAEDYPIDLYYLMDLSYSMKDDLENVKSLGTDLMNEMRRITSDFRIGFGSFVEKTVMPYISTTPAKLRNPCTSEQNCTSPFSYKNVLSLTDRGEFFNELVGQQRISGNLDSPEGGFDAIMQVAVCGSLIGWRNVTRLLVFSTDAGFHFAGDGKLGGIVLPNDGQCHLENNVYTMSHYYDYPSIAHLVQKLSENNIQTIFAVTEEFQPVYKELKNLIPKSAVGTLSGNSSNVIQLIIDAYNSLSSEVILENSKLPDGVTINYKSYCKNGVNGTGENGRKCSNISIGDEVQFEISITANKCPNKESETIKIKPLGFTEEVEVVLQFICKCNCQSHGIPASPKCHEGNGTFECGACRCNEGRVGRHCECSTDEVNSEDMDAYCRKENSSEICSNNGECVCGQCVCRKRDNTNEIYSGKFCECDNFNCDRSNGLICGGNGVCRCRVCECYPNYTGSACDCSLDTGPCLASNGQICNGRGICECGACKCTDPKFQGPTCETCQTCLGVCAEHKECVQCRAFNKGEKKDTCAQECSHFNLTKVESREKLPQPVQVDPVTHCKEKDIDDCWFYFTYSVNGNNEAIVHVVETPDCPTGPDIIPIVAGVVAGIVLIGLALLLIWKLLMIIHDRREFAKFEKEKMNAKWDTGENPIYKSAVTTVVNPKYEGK

- ADH50 (ligand density required for half-maximal adhesion of MC3T3-E1 cells) [1]: 70 fmol/cm^2
- FAK tyrosine-397 phosphorylation, FNIII7-10 surface against RGD-tethered surface [1]: ~3 fold
- cell proliferation rate (BrdU incorporation), FNIII7-10 surface against RGD-tethered surface [1]: 2 fold
B1: monobiotinylated recombinant fibronectin fragment FNIII7-10 (ligand)
chain: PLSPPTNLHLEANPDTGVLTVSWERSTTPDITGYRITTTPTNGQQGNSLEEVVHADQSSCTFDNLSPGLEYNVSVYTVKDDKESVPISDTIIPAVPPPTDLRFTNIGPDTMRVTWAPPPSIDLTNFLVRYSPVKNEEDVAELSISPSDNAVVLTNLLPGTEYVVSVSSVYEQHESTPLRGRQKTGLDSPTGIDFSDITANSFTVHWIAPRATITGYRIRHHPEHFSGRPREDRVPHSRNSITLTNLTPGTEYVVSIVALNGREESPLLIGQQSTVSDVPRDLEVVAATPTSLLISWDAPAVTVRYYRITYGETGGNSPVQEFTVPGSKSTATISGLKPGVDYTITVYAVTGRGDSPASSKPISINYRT
modifications: single biotin on the N-terminal biotin tagging sequence (monobiotinylated)

- binding result [2]: no binding
- ADH50 (ligand density required for half-maximal adhesion of MC3T3-E1 cells) [3]: 1950 fmol/cm^2
Binder: GRGDGGGGGGGGGGGGGPHSRN (Synthetic; tethered to SAMs) [RGD-PHSRN peptide (GRGDG13PHSRN)]

- ADH50 (ligand density required for half-maximal adhesion of MC3T3-E1 cells) [3]: 2300 fmol/cm^2
Binder: GRGDSPC [RGD peptide (GRGDSPC)]
